Measured values as given in the supplement of paper PMC7877785.
± gives the uncertainty stated by the source.

Test: self-splicing fitness, log relative to wild type (ln ratio); higher = more splicing; Tetrahymena group I intron in knt gene, E. coli kanamycin selection, DiMSum; sequences stand for … in CUCUCU…GGAGGGAAAAGUUAUCAGGCAUGCACCUGGUAGCUAGUCUUUAAACCAAUAGAUUGCAUCGGUUUAAAAGGCAAGACCGUCAAAUUGCGGGAAAGGGGUCAACAGCCGUUCAGUACCAAGUCUCAGGGGAAACUUUGAGAUGGCCUUGCAAAGGGUAUGGUAAUAAGCUGACGGACAUGGUCCUAACCACGCAGCCAAGUCCUAAGUCAACAGAUCUUCUGUUGAUAUGGAUGCAGUUCACAGACUAAAUGUCGGUCGGGGAAGAUGUAUUCUUCUCAUAAGAUAUAGUCGGACCUCUCCUUAAUGGGAGCUAGCGGAUGAAGUGAUGCAACACUGGAGCCGCUGGGAACUAAUUUGUAUGCGAAAGUAUAUUGAUUAGUUUUGGAGUACUCGUGGUCG
How it was run: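 Pooled colonies went to amplicon sequencing on an Illumina HiSeq 2500 after six replicate transformations. The plates were LB agar with 100 μg/mL carbenicillin, 50 μM IPTG and 0.2% rhamnose, with or without 25 μg/mL kanamycin, incubated overnight at 37°C or 30°C. The E. coli BL21(DE3) library had all eight P1ex-region intron nucleotides randomised, the intron placed in the knt kanamycin-resistance gene on pET-22b(+). DiMSum fitness is the error-weighted combination of replicate fold changes, kanamycin against none, normalised to wild type.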

| Sequence | self-splicing fitness (ln) (30 °C) | self-splicing fitness (ln) (37 °C) |
| --- | --- | --- |
| AACCAGCAAUAUUACGGGUA | -0.823 ± 0.045 | -0.376 ± 0.055 |
| UUCGAGCAAUAUUACGAUAU | -3.85 ± 0.33 | -2.51 ± 0.49 |
| UGGUAGCAAUAUUACGAUAU | -2.62 ± 0.16 | -1.62 ± 0.16 |
| AUUUAGCAAUAUUACGAGCG | -2.66 ± 0.23 | -1.05 ± 0.2 |
| AGAUAGCAAUAUUACGCUGU | -3.36 ± 0.25 | -3.22 ± 0.4 |
| GUCCAGCAAUAUUACGGCGA | -1.32 ± 0.12 | -0.997 ± 0.14 |
| AGCGAGCAAUAUUACGGAUC | -3.42 ± 0.33 | -1.44 ± 0.49 |
| CACCAGCAAUAUUACGUGUC | -3.8 ± 0.09 | -3.28 ± 0.11 |
| CGAUAGCAAUAUUACGUCCG | -1.4 ± 0.1 | -0.5 ± 0.12 |
| UGAAAGCAAUAUUACGGAAA | -1.83 ± 0.18 | -1.29 ± 0.17 |
| CCACAGCAAUAUUACGUCUU | -3.88 ± 0.14 | -2.85 ± 0.12 |
| CGUCAGCAAUAUUACGAGGU | -3.81 ± 0.47 | -3.03 ± 0.35 |
| AAUGAGCAAUAUUACGUAAU | -3.08 ± 0.17 | -1.33 ± 0.15 |
| UUCAAGCAAUAUUACGAUGG | -2.38 ± 0.19 | -1.95 ± 0.17 |
| ACCGAGCAAUAUUACGCCCA | -1.68 ± 0.29 | -3.03 ± 0.3 |
| GAGUAGCAAUAUUACGUACU | -2.67 ± 0.15 | -1.67 ± 0.16 |
| GCCUAGCAAUAUUACGAACG | -2.19 ± 0.19 | -0.701 ± 0.27 |
| GCCCAGCAAUAUUACGGGCG | -2.53 ± 0.091 | -1.7 ± 0.099 |
| GAAGAGCAAUAUUACGCUGU | -3.82 ± 0.3 | -2.6 ± 0.29 |
| UCUGAGCAAUAUUACGCGGC | -4.16 ± 0.47 | -3.58 ± 0.33 |
| AAAUAGCAAUAUUACGCAUA | -1.7 ± 0.11 | -0.726 ± 0.11 |
| AGGGAGCAAUAUUACGAACG | -2.58 ± 0.39 | -1.9 ± 0.36 |
| CAAGAGCAAUAUUACGCGGG | -2.7 ± 0.25 | -2.89 ± 0.34 |
| UUUGAGCAAUAUUACGAUGG | -2.08 ± 0.17 | -1.77 ± 0.2 |
| UCUAAGCAAUAUUACGUUGG | -1.6 ± 0.064 | -1.37 ± 0.086 |
| CUCGAGCAAUAUUACGGUCU | -3.02 ± 0.15 | -2.11 ± 0.17 |

| Sequence | self-splicing fitness (ln) (30 °C) | self-splicing fitness (ln) (37 °C) |
| --- | --- | --- |
| CUCUAGCAAUAUUACGGAGU | -3.04 ± 0.29 | -2.61 ± 0.25 |
| UCAUAGCAAUAUUACGCACU | -3.19 ± 0.25 | -3.18 ± 0.32 |
| CAUCAGCAAUAUUACGAAGC | -3.23 ± 0.47 | -2.2 ± 0.41 |
| CCAUAGCAAUAUUACGCGGG | -3.99 ± 0.21 | -2.87 ± 0.24 |
| UCGUAGCAAUAUUACGGUAG | -4.09 ± 0.36 | -3.06 ± 0.4 |
| UUGCAGCAAUAUUACGCUAC | -0.542 ± 0.29 |  |
| GUGUAGCAAUAUUACGUUGG | -4.05 ± 0.42 | -2.06 ± 0.21 |
| UGCGAGCAAUAUUACGUGCG | -2.56 ± 0.27 | -0.202 ± 0.3 |
| AAGCAGCAAUAUUACGCCGC |  | -2.37 ± 0.45 |
| CAUGAGCAAUAUUACGUAGA | -4.22 ± 0.27 | -2.77 ± 0.21 |
| UCCGAGCAAUAUUACGCCGG | -2.87 ± 0.36 | -2.15 ± 0.28 |
| CCUGAGCAAUAUUACGACGG | -3.06 ± 0.25 | -2.59 ± 0.48 |
| GCGCAGCAAUAUUACGAUAU | -1.18 ± 0.078 | -0.433 ± 0.1 |
| AGUCAGCAAUAUUACGCUUA | -0.891 ± 0.12 | 0.278 ± 0.14 |
| GGUGAGCAAUAUUACGAUUC | -0.904 ± 0.089 | 0.137 ± 0.11 |
| ACCGAGCAAUAUUACGAGGC | -4.59 ± 0.29 | -3.23 ± 0.33 |
| CCAGAGCAAUAUUACGGCCC | -2.44 ± 0.46 | -1.44 ± 0.42 |
| CGCCAGCAAUAUUACGACUG | -0.729 ± 0.13 | 0.335 ± 0.15 |
| UACGAGCAAUAUUACGUGAA | -3.05 ± 0.2 |  |
| CUAAAGCAAUAUUACGAUUG | -0.545 ± 0.053 | -0.596 ± 0.06 |
| CGUGAGCAAUAUUACGCCCU | -3.26 ± 0.23 | -1.98 ± 0.24 |
| CCCUAGCAAUAUUACGAUGA | -3.24 ± 0.18 | -2.35 ± 0.2 |
| CCCCAGCAAUAUUACGGUAG | -2 ± 0.065 | -1.31 ± 0.097 |
| GCCUAGCAAUAUUACGUUCA | -1.37 ± 0.16 | -1.12 ± 0.17 |
| AUCCAGCAAUAUUACGUCUC | -1.84 ± 0.12 | -0.869 ± 0.11 |
| UGUAAGCAAUAUUACGUCAU | -2.39 ± 0.16 | -1.28 ± 0.19 |

| Sequence | self-splicing fitness (ln) (30 °C) | self-splicing fitness (ln) (37 °C) |
| --- | --- | --- |
| AGCCAGCAAUAUUACGUGGC | -3.74 ± 0.19 | -3.57 ± 0.29 |
| AUGGAGCAAUAUUACGUUUA | -2.59 ± 0.28 | -1.83 ± 0.27 |
| GGCGAGCAAUAUUACGUAAC | -2.52 ± 0.19 | -0.781 ± 0.13 |
| CAGAAGCAAUAUUACGUAAU | -3.4 ± 0.15 | -2.85 ± 0.21 |
| UCCAAGCAAUAUUACGAGCG | -1.96 ± 0.081 | -0.978 ± 0.099 |
| GUGAAGCAAUAUUACGUGAA | -2.63 ± 0.11 | -0.504 ± 0.12 |
| GGGCAGCAAUAUUACGUUUA | -1.09 ± 0.069 | -0.227 ± 0.094 |
| AAUUAGCAAUAUUACGUGGC | -3.39 ± 0.2 | -1.96 ± 0.24 |
| CCUUAGCAAUAUUACGCCUG |  | -2.89 ± 0.34 |
| UUUAAGCAAUAUUACGACCC | -1.3 ± 0.31 | 0.0123 ± 0.28 |
| ACUGAGCAAUAUUACGCACU | -0.721 ± 0.13 | -0.386 ± 0.17 |
| CGCUAGCAAUAUUACGAGUG | -2.91 ± 0.16 | -3.22 ± 0.17 |
| UCAAAGCAAUAUUACGUCAU | -2.36 ± 0.14 | -2.71 ± 0.2 |
| AUUGAGCAAUAUUACGAUGC | -1.58 ± 0.38 |  |
| AUAAAGCAAUAUUACGCUUG | -0.77 ± 0.082 | -0.368 ± 0.11 |
| AUUAAGCAAUAUUACGGGUC | -2.81 ± 0.21 | -3.49 ± 0.37 |
| CACGAGCAAUAUUACGCAUU | -4.65 ± 0.41 | -1.95 ± 0.3 |
| CUGUAGCAAUAUUACGAUAU | -4.06 ± 0.32 | -2.75 ± 0.32 |
| AUGCAGCAAUAUUACGAUAU | -1.04 ± 0.054 | 0.0687 ± 0.07 |
| AUCAAGCAAUAUUACGCCGA | -1.02 ± 0.14 | -0.375 ± 0.17 |
| GUCGAGCAAUAUUACGCAAU | -1.08 ± 0.1 | -0.467 ± 0.14 |
| GGCAAGCAAUAUUACGUAGU | -1.52 ± 0.098 | -0.197 ± 0.11 |
| CAUAAGCAAUAUUACGCCUU | -3.7 ± 0.19 | -1.96 ± 0.17 |
| CACUAGCAAUAUUACGCUUC | -3.74 ± 0.3 | -3.2 ± 0.4 |
